# Measurements taken from paper PMC11250742, “Preclinical evaluation of CXCR4 peptides for targeted radionuclide therapy in glioblastoma” (EJNMMI Radiopharmacy and Chemistry, 2024).
# Read-outs that look alike come from different tables or passages of the source. Where a SMILES comes first, the peptide text is derived from it. Bridges are numbered along the chain shown (N, C = ends). [ ]: non-standard residue; d: D form. The star is where a group is joined. DOTA = O=C(O)CN1CCN(CC(=O)O)CCN(CC(=O)*)CCN(CC(=O)O)CC1; 2Nal = N[C@@H](Cc1ccc2ccccc2c1)C(=O)O; Cit = NC(=O)NCCC[C@H](N)C(=O)O
# Test: Ex vivo biodistribution in U87-CXCR4 + tumour-bearing mice
# Set-up: species or system BALB/c nude mice
# Settings: mouse; for tissue to tissue ratio at 24 h / tissue uptake dose at 1 h / tissue uptake dose at 4 h / tissue uptake dose at 24 h / tissue uptake dose at 168 h / SUV at 1 h / SUV at 4 h / SUV at 24 h / SUV at 168 h: female, BALB/c nude, iv, 1.5 MBq, total radioactivity; for tissue uptake dose at 1 h / tissue uptake dose at 4 h / tissue uptake dose at 24 h / tissue uptake dose at 168 h: %IA
# Protocol: For the generation of the subcutaneous GBM xenograft model, BALB/c nude mice (between 8 and 12 weeks old) were anesthetised with 2.5% isoflurane in O2 at a flow rate of 0.2 L/min and subcutaneously injected on the right shoulder with 3 × 10^6 U87-CXCR4 + cells resuspended in a 1:1 mixture of PBS and Cultrex BME (R&D Systems, Bio-Techne, Minnesota, US). Tumours were left to grow for ten days before the start of the experiment. Tumour volumes were calculated as length × width × height. Three days before the experiment, the mean tumour volumes of all mice were 255 ± 119 mm^3.
# The pharmacokinetic profile of [^177Lu]Lu-POL3026 was evaluated in female BALB/c nude mice with subcutaneous xenografts of U87-CXCR4 + tumours.
# All animals were anesthetised with 2.5% isoflurane in O2 at a flow rate of 1 L/min and intravenously (IV) injected with 1.5 MBq of [^177Lu]Lu-POL3026 via a tail vein (radiolabelled with a Am of 53.1 ± 0.55 MBq/nmol). The mice were sacrificed by an overdose of pentobarbital (200 µL of 60 mg/mL) at 1-, 4-, 24- and 168 h post-injection (p.i.) (n = 3–4 per time point), followed by cardiac puncture. Organs of interest were collected in tarred tubes and weighed. The activity in the different organs was measured in the automated gamma counter described above. For the calculation of the total activity in the blood, bone, and muscle, the masses were assumed to be 7, 12 and 40% of the total body mass, respectively. Data is shown as standardised uptake value (SUV), calculated using the following equation:
# SUV = [Activity in organ (cpm) / Organ weight (g)] / [(Injected activity (cpm) / Total body weight (g)].
structure (smiles),measurement,setting,value
"N=C(N)NCCC[C@@H]1NC(=O)[C@@H]2CSSC[C@H](NC(=O)[C@H](Cc3ccc4ccccc4c3)NC(=O)[C@H](CCCNC(=N)N)NC(=O)[C@H](CCCNC(=N)N)NC(=O)[C@H]3CCCN3C(=O)CNC1=O)C(=O)N[C@@H](Cc1ccc(O)cc1)C(=O)N[C@@H](CCC(N)=O)C(=O)N[C@@H](CCCCNC(=O)CN1CCN(CC(=O)O)CCN(CC(=O)O)CCN(CC(=O)O)CC1)C(=O)N1CCC[C@@H]1C(=O)N1CCC[C@H]1C(=O)N[C@@H](Cc1ccc(O)cc1)C(=O)N[C@@H](CCCNC(=N)N)C(=O)N[C@@H](CCCNC(N)=O)C(=O)N2 [[^177Lu]Lu-DOTA-POL3026, metal not drawn] (cyclo(RR[2Nal]CYQK(DOTA)[dP]PYR[Cit]CRG[dP]); disulfide 4-13)",tissue to tissue ratio at 24 h,"24 h p.i., read-out: tumour-to-kidney ratio",0.7
same,tissue uptake dose at 1 h,Blood,15.2 %ID
same,tissue uptake dose at 4 h,Blood,3.73 %ID
same,tissue uptake dose at 24 h,Blood,0.14 %ID
same,tissue uptake dose at 168 h,Blood,0.04 %ID
same,tissue uptake dose at 1 h,Blood on tissue paper,3.79 %ID
same,tissue uptake dose at 4 h,Blood on tissue paper,1.56 %ID
same,tissue uptake dose at 24 h,Blood on tissue paper,0.51 %ID
same,tissue uptake dose at 168 h,Blood on tissue paper,0.2 %ID
same,tissue uptake dose at 1 h,Bone,8.81 %ID
same,tissue uptake dose at 4 h,Bone,14.4 %ID
same,tissue uptake dose at 24 h,Bone,7.05 %ID
same,tissue uptake dose at 168 h,Bone,2.14 %ID
same,tissue uptake dose at 1 h,Brain,0.09 %ID
same,tissue uptake dose at 4 h,Brain,0.03 %ID
same,tissue uptake dose at 24 h,Brain,0.01 %ID
same,tissue uptake dose at 1 h,Carcass,28.5 %ID
same,tissue uptake dose at 4 h,Carcass,18.3 %ID
same,tissue uptake dose at 24 h,Carcass,12.8 %ID
same,tissue uptake dose at 168 h,Carcass,3.02 %ID
same,tissue uptake dose at 1 h,Heart,0.71 %ID
same,tissue uptake dose at 4 h,Heart,0.22 %ID
same,tissue uptake dose at 24 h,Heart,0.09 %ID
same,tissue uptake dose at 168 h,Heart,0.01 %ID
same,tissue uptake dose at 1 h,Intestines,5.63 %ID
same,tissue uptake dose at 4 h,Intestines,3.76 %ID
same,tissue uptake dose at 24 h,Intestines,2.14 %ID
same,tissue uptake dose at 168 h,Intestines,0.59 %ID
same,tissue uptake dose at 1 h,Kidneys,4.03 %ID
same,tissue uptake dose at 4 h,Kidneys,4.99 %ID
same,tissue uptake dose at 24 h,Kidneys,3.65 %ID
same,tissue uptake dose at 168 h,Kidneys,0.61 %ID
same,tissue uptake dose at 1 h,Liver,31.6 %ID
same,tissue uptake dose at 4 h,Liver,39.8 %ID
same,tissue uptake dose at 24 h,Liver,39.2 %ID
same,tissue uptake dose at 168 h,Liver,14.2 %ID
same,tissue uptake dose at 1 h,Lungs,2.72 %ID
same,tissue uptake dose at 4 h,Lungs,1.87 %ID
same,tissue uptake dose at 24 h,Lungs,0.59 %ID
same,tissue uptake dose at 168 h,Lungs,0.06 %ID
same,tissue uptake dose at 1 h,Muscle,9.87 %ID
same,tissue uptake dose at 4 h,Muscle,4.89 %ID
same,tissue uptake dose at 24 h,Muscle,3.78 %ID
same,tissue uptake dose at 168 h,Muscle,0.57 %ID
same,tissue uptake dose at 1 h,Pancreas,0.3 %ID
same,tissue uptake dose at 4 h,Pancreas,0.16 %ID
same,tissue uptake dose at 24 h,Pancreas,0.1 %ID
same,tissue uptake dose at 168 h,Pancreas,0.02 %ID
same,tissue uptake dose at 1 h,Spleen,4.01 %ID
same,tissue uptake dose at 4 h,Spleen,2.02 %ID
same,tissue uptake dose at 24 h,Spleen,1.61 %ID
same,tissue uptake dose at 168 h,Spleen,0.72 %ID
same,tissue uptake dose at 1 h,Stomach,0.35 %ID
same,tissue uptake dose at 4 h,Stomach,0.31 %ID
same,tissue uptake dose at 24 h,Stomach,0.17 %ID
same,tissue uptake dose at 168 h,Stomach,0.03 %ID
same,tissue uptake dose at 1 h,Tail,2.05 %ID
same,tissue uptake dose at 4 h,Tail,1.75 %ID
same,tissue uptake dose at 24 h,Tail,1.7 %ID
same,tissue uptake dose at 168 h,Tail,0.53 %ID
same,tissue uptake dose at 1 h,Tumour,1.54 %ID
same,tissue uptake dose at 4 h,Tumour,1.01 %ID
same,tissue uptake dose at 24 h,Tumour,1.46 %ID
same,tissue uptake dose at 168 h,Tumour,0.29 %ID
same,SUV at 1 h,Blood,2.17 SUV
same,SUV at 4 h,Blood,0.53 SUV
same,SUV at 24 h,Blood,0.02 SUV
same,SUV at 1 h,Bone,0.73 SUV
same,SUV at 4 h,Bone,1.2 SUV
same,SUV at 24 h,Bone,0.59 SUV
same,SUV at 168 h,Bone,0.18 SUV
same,SUV at 1 h,Brain,0.05 SUV
same,SUV at 4 h,Brain,0.02 SUV
same,SUV at 24 h,Brain,0.01 SUV
same,SUV at 1 h,Heart,1.33 SUV
same,SUV at 4 h,Heart,0.46 SUV
same,SUV at 24 h,Heart,0.17 SUV
same,SUV at 168 h,Heart,0.02 SUV
same,SUV at 1 h,Kidneys,2.57 SUV
same,SUV at 4 h,Kidneys,3.34 SUV
same,SUV at 24 h,Kidneys,2.41 SUV
same,SUV at 168 h,Kidneys,0.38 SUV
same,SUV at 1 h,Liver,5.27 SUV
same,SUV at 4 h,Liver,7.32 SUV
same,SUV at 24 h,Liver,6.46 SUV
same,SUV at 168 h,Liver,2.3 SUV
same,SUV at 1 h,Lungs,4.74 SUV
same,SUV at 4 h,Lungs,3.24 SUV
same,SUV at 24 h,Lungs,1.02 SUV
same,SUV at 168 h,Lungs,0.08 SUV
same,SUV at 1 h,Muscle,0.25 SUV
same,SUV at 4 h,Muscle,0.12 SUV
same,SUV at 24 h,Muscle,0.09 SUV
same,SUV at 168 h,Muscle,0.01 SUV
same,SUV at 1 h,Pancreas,0.3 SUV
same,SUV at 4 h,Pancreas,0.19 SUV
same,SUV at 24 h,Pancreas,0.13 SUV
same,SUV at 168 h,Pancreas,0.02 SUV
same,SUV at 1 h,Spleen,8.67 SUV
same,SUV at 4 h,Spleen,6.77 SUV
same,SUV at 24 h,Spleen,4.83 SUV
same,SUV at 168 h,Spleen,1.84 SUV
same,SUV at 1 h,Tumour,1.39 SUV
same,SUV at 4 h,Tumour,1.74 SUV
same,SUV at 24 h,Tumour,1.79 SUV
same,SUV at 168 h,Tumour,0.32 SUV
same,tissue to tissue ratio at 24 h,tumour-to-blood ratio,89
same,tissue to tissue ratio at 24 h,tumour-to-liver ratio,0.3
same,tissue to tissue ratio at 24 h,tumour-to-muscle ratio,19
same,"%IA, Brain",,0.00 %IA
same,"SUV, Blood",,0.00
same,"SUV, Brain",,0.00
same,"SUV, Tumour",,1.9
